Results: the DeepSol protein solubility set

test: soluble on expression in E. coli; label from the status in PepcDB or PDB records

| Sequence | soluble on expression in E. coli |
| --- | --- |
| GPISEFPVDFHYGVRVDVTLLSKIRRVNEHIKSATKTGVVQVHGSACTPTLSVLSSVGTAGVLGMRIKNALTPLVGHTEGSGDVSFSFRNTSVGSGFTHTRELFGANVLDAGIAFYRKGEACDTGAQPQFVRTTISYGDNLTSTVHKSVVDQKGILPFHDRMEAGGRTTRLMLCGKTGAFLLKWLRQQKTKEDQTVTVSVSETLSIVTFSLGGVSKIIDFKPETKPVSGWDGLKGKKSVDVGVVHTDALSRVSLESLIAALRMCKVPGWFTPGLIWHSNEILEVEGVPTGCQSGDVKLSVLLLEVNRSV | soluble |
| GAMGSGIPMEACPHIRYAFQNDKLLLQQASVGRLTLVNKTTILLRPMKTTTVDLGLYARPPEGHGLMLWGSTSRPVTSHVGIIDPGYTGELRLILQNQRRYNSTLRPSELKIHLAAFRYATPQMEEDKGPINHPQYPGNVGLDVSLPKDLALFPHQTVSVTLTVPPPSIPHHRPTIFGRSGLAMQGILVKPCRWRRGGVDVSLTNFSDQTVFLNKYRRFCQLVYLHKHHLTSFYSPHSDAGVLGPRSLFRWASCTFEEVPSLAMGDSGLSEALEGRQGRGFGSSGQ | soluble |
| NPVSKRSRGKGMLGGAKRAARTHRASGTAVEELVFPYEHPVPQVGTLTSVELTIPLMRDGVVVEGLPTLEESRAYLAQQLVTIPWEGLALSRDEPVLATRHVGFDQ | not soluble |
| MRKTLIALMFAAALPTVAMAMPDGGPRHDGPHHRGDAPFHQLDLSRDQRQQIGKLMGEQMQQRRDITERYLSKLPATDQKAMKDELQANRDKTDSAVRKLLTADQQKKFDELQKERAAKKAEWQEFQAWKAEKGAKAQLEHHHHHH | soluble |
| MSLIIRLNFITKYKVDMKRSHLSLIACLLASTQAYALSTDREQPVYIDSDSQQLDMKSNRVTFLGDVKLKQGSININADKLIVIRNAENGKIEEIEGYGNVATFSQLTDEGKTLYGEAKELYYKVRDDELVMINKAMLSQDDSEIRGSKIRYKISLQKLIADSDGKGRVSTVLQPQAIQEEGHHHHHH | soluble |
| MGSDKIHHHHHHAATRLKRRKFPTINEEFYYNQLENGMTVFLIPKESFKETLAVMSSRFGSIDTNFTVNGKKKSYLAGIAHLLEHQLFEMNKQKDAAYEFTKLGAESNAYTTFDKTIYYFSTADNIKKNLDLLQEFTSQINFTDMSIEKEKKIITQEFNMYQDDSDDYLYQVILSKLYPQTSLAEDITGNRDSIDKLTKNNLEENFHYFYQPENLTLLVAGDFDVKRVYKDIVTTQRQLPDRPKFEIKRSPLKLLPITPTSSMQMDISISKLAVGFRFNFIKKKRKSLIKERLLLKLFFLLLFGWTSEHYQQWYEDRKIDDSFELKIEVSTSYQFVVILLDTKEPIAMSNKIGQTIKKFKTDTNLSASHLQTVKKELYGDFIRSLDSLEALSSQFIDNLWGEETYFDFPTVLQNIEIKDVLEFGEKITKEMQLTDFTLFPK | not soluble |
| EVQLLEESGPGLVQPSQSLSITCTVSGFSLTSYGVHWVRQSPGKGLEWLGVIWSGGSTDYNAAFISRLSISKDNSKSQVFFKMNSLQADDTAIYYCARNRGYSYAMDSWGQGTSVTVSSAKTTPPSVYPLAPGSAAQTNSMVTLGCLVKGYFPEPVTVTWNSGSLSSGVHTFPAVLQSDLYTLSSSVTVPSSTWPSETVTCNVAHPASSTKVDKKIVPRDCTS | soluble |
| MSLAVNNIIKRIRNIMRQDAGINGDAQRIEQMTWMIFLKVYDTQEETWEYKASRESKTYQSIIPKDLRWRNWAVDEKDGEALTGEALLSFVNEKLFPALKNLPVDANTPRAKSIVQETFADLNQYMKNGTLLRQVVNIVNEIEFDDADDRHTFGDIYEGILKDLQSAGNAGEFYTPRALTDFIVMMLDPKLGETFGDFTSGTGGFLTSALNYMGKSVRSAEDGEKLQNAVVGQEWKPLPYLLSITNLLLHDIEAPNIANCDSLGTNVTDFKETDKVDVIGMNPPYGGSTEDSVKNNFPLRYRSSETADLFIALIMYRLKAGGRCGVIIPDGFLFGTDGAKLALKENLLRKFNLHTIIRLPGSIFSPYTSIATNILFFNNEEAEGCEEGFKTKETWFYRLDMPEGYKHFSKNKPMKVEHTLPIQEWWNDRKEIVSSETGEKSRVFTAQQLLDLNCNFDQCKFPKEEEEILPPAEGHHHHHH | soluble |
| MGSDKIHHHHHHMFDTLASLGRDLQARETLNACLDRVFRDVCAQGFQSLVYDYAPVPLSMEGALITPSVFLQRNAPDDMHNVWCEHGYYQNDPVQQRATRRTTPFVWSYRTEGRTEGRTEGVEYVGDQHRQVTRYLCDSDMGTGVTVPLHLPGGAFATFSAAVNATQAEAPRLAEAQLPPFLLLAHAFQARAQELLDPQERRCHHIALTRRERECLQYSAKGMTAKSIAATLNRSTATVNLHLNSAARKLGARNRVEAVVRGMHYRLLEL | not soluble |
| MPDPLTVSGSFSPEDVKHIGLKSIISGQIIKKYSQNQNLRSIKNVKLIIPSKAVSVDRNERTLFIPCLKLLLNYRFSNNFNKVSQIEIDNVYAYVAVVFPDEEPESFGYYIGVDRNTMGHIAVVADPDSGKVWKLGKMRYHIHQKYQNIMNRLSNSGKNKQLKAVKKREKNIVKDLNHKISRKIVDLALYNGSGIKLENLKGIRKLNSKSNGAGKGKPDQNKDKKLTCSNEYSLNNWSFLQLQQFIEYKARLRGVEVVYIDPYATSKKCSRCGHTGNRQSKRFECPCCGHVDHADVNAAFNIALTPKDTGQFSAERDAGKGRTDTPQKVLARNAFSKRAAREKASPQFAWEVCQFLTLEHHHHHH | not soluble |
| MTARVAGQAVGGQILVGEPVHDAVSDCADIRFGSYRLFSLDAAPGPDLD | not soluble |
| MGSDKIHHHHHHMKSKNLSPYIKYIELDRVRVPSFSRYPFHLPAVRNLDTLALHPKVTFLVGENGSGKSTILEAIAVAYGFNAEGGTKNFNFSSRRTHSDLSDYVKVVKGTRTPRNGFFLRAESFYNFASNLDDLDSEMAFGPSLIDSYGGRSLHEQSHGESFFAVFLNRFSGDGVYILDEPEAALSPSRQMSMLSRMHELVGEGAQFIIATHSPIIMAYPDALIYQIADDIEQVGYQETEHYRITRAFLNHPQKMLKLLLE | not soluble |
| MSLKIMIVEDDRIQATSLKLKLRQLGLDDVILAENGFAALELCNKVGIDLMFCDIRMPQMDGISLLSQLSLQAPKLGVVILSAVEDTILELTHNMCSLAGFAYVDRLPKPYEVEDLQRVVEGFQKQTEPETSHKPAITLTCDEIEQAFLHDHIFNYYQPQFDFRSGAMVGVEALVRYEHPTHGMLSPAVFLPLIEQCGLHEKLFLTVLEKSVSALASIGADLQLSVNISQRNLQHSICDPILAICERYGFPASKLTLEMTEHEVYNGTPTSLANLARLRMYGVGLSIDDFGTGYASLGQLAQLPFTELKIDRSFVHDLATNYKHQQLTNMCLLLAQSLGLHCVVEGVENEETWQYLRQLGVDTCQGYYAAKPMPIAQLSELYTKNRRQCLGEGHHHHHH | soluble |
| MGSDKIHHHHHHMYKMTDNELTQMGAVITTREIQQEPELWLETFKIYQEKKQAIDAFLGKIESEFNEPVRVVFTGAGSSAYVGDTAMPYLTENGDRNHFRFEAIDTTKIVSTPKQYLEKDTPTILVSFARSGNSPESVATVDIAEKYVKHLYQITITCAPEGKLALHAQEDDKNLVLMQPARSNDKGFAMTGSFSCMLLTTLLVFDAQHSDEQKETYVNAISKMGHEVIDRVDDIQKLVDTDFERIVYLGSGALGGLTREAQLKVLELTAGQKVTVFDTSMGFRHGPKSFVNSKTLLFDFVSNNAYTRQYDVDILEEVAGDEIAPVVMGIGVQSAHNFTGSNFNFANGDDSIPDGYMAFPDVMFAQTISLLSSIKVKNTPDTPSATGTVNRVVKGVTIHDFEG | not soluble |
| MGSDKIHHHHHHMQFGNHPYYANELMLSLDEASGMVGEDARVAEFIRPLYGSRESISGTPRTCLWITDENLALAQEIPAVWARVEKVRKDRKTKTKDVQAKKLVETPWRFRDQYEAESSLLVVPIVSSENRPYLPVVLLSKEAIVHNKAFALYDAPLWNFALIVSKMHLVWVAAVCVRLEMRYSYSNTLGWNTFPVPTLTEQNKADLTRCAEDILLARESHYPATIADLYGPDNMPDDLLRAHERNDEVLERIYIGRRFRNDTERLEKLFDLYTKMTAGQGKPKKKAKK | not soluble |
